{
  "source": "paper PMC2063517",
  "about": "“Leptospira interrogans Endostatin-Like Outer Membrane Proteins Bind Host Fibronectin, Laminin and Regulators of Complement” (PLoS ONE, 2007)",
  "molecules": {"B1": {"name": "recombinant LenB, L. interrogans serovar Bratislava (natural protein)", "chain": "MFKNIFLIFLTGSVVCILWSCGDKKEEDNSDLLLFLLNSLGSSNSAASTVVTSCKDASFCRTFVATNNGAGYDGNLGGISGADAKCAAAKSSNLTGTYKALLAAMGTREAVFVGDGSTRLVDWVLYPNKQYRRSDGTTTTFTTNANSVVTANLQNSVDVGAEKFYWIGVGNQPATFDWEVSLNCNDWNSNNAVNFAIDGTTSSNEVFAGDGATPGGAFGSHNTGCNIRLNLLCVEQ", "notes": "Made with the vector pET200 (Invitrogen); source: E. coli, inclusion bodies, purified in 8M urea (MagneHis nickel beads), dialyzed against PBS; dissolved into PBS after 2-3 days at 4°C"}},
  "key": {"[1]": {"target": "murine laminin (murine)", "experiment": "ELISA; 1 µg murine laminin immobilised in microtiter wells, soluble LenA or LenB added in PBS-based binding buffer, detected by anti-polyhistidine; Kd = concentration of Len protein giving half-maximal binding; in some experiments additional NaCl or porcine heparin in the buffer (heparin also preincubated with laminin)"}, "[2]": {"target": "murine laminin (murine)", "experiment": "ELISA; data not shown: laminin immobilised, 1 µM LenB with 1 µM or 4 µM heparin in the binding buffer"}, "[3]": {"target": "30-kDa amino-terminal domain of fibronectin (human)", "experiment": "ELISA; human plasma fibronectin or its proteolytic fragments (70 kDa, 30 kDa NTD, 45 kDa GBD) immobilised in wells, soluble LenA or LenB added, detected by anti-polyhistidine; Kd = concentration of Len protein giving half-maximal binding"}, "[4]": {"target": "human plasma fibronectin (intact) (human)", "experiment": "ELISA; human plasma fibronectin or its proteolytic fragments (70 kDa, 30 kDa NTD, 45 kDa GBD) immobilised in wells, soluble LenA or LenB added, detected by anti-polyhistidine; Kd = concentration of Len protein giving half-maximal binding", "conditions": "both partners purified"}},
  "data": [
    {"molecule": "recombinant LenA (leptospiral endostatin-like protein A), L. interrogans serovar Lai (from UniProt Q8F863 1-240) (natural protein)", "values": [
      {"measurement": "binding of 1 µM LenA with 1 µM heparin, percent of the no-heparin control", "setting": "[1]", "value": 26, "unit": "%"},
      {"measurement": "percent reduction of binding at 200 mM NaCl against 150 mM NaCl", "setting": "[1]", "value": 49, "unit": "%"},
      {"measurement": "percent reduction of binding at 500 mM NaCl against 150 mM NaCl", "setting": "[1]", "value": 60, "unit": "%"}
    ]},
    {"molecule": "recombinant LenB, L. interrogans serovar Bratislava (from UniProt A8SKK5 1-236) (natural protein)", "values": [
      {"measurement": "binding of 1 µM LenB with 1 µM heparin, percent of the no-heparin control", "setting": "[2]", "value": 75, "unit": "%"},
      {"measurement": "binding of 1 µM LenB with 4 µM heparin, percent of the no-heparin control", "setting": "[2]", "value": 55, "unit": "%"},
      {"measurement": "Kd", "setting": "[1]", "value": 118, "unit": "nM"},
      {"measurement": "binding of 0.25 µM LenB with 50 µM heparin (laminin preincubated with 50 µM heparin), percent of the no-heparin control", "setting": "[1]", "value": 25, "unit": "%"},
      {"measurement": "percent inhibition of binding at 200 mM NaCl against 150 mM NaCl", "setting": "[1]", "value": 40, "unit": "%"},
      {"measurement": "percent inhibition of binding at 500 mM NaCl against 150 mM NaCl", "setting": "[1]", "value": 79, "unit": "%"},
      {"measurement": "Kd", "setting": "[3]", "value": 69.5, "unit": "nM"}
    ]},
    {"molecule": "B1", "values": [
      {"measurement": "Kd", "setting": "[4]", "value": 106, "unit": "nM"}
    ]}
  ]
}
